Source: the supplement of paper PMC9732359
± gives the uncertainty stated by the source.

Assay: protein stability index of a GFP-peptide fusion (yeast GPS) (PSI 1-4); higher = more stable; sorted into four equal gates, so the index is relative within each strain
Procedure, shortened: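 The protein stability index of a peptide was calculated by multiplying its read frequency in each gate by that gate's number and adding the products. The peptides were tiled 17-residue stretches of yeast proteins, fused downstream of GFP on a Cherry-expressing plasmid and carried in yeast as a pooled library. Mid-log cultures in leucine-free medium were sorted into four equal gates by GFP/Cherry ratio, and each gate's plasmids were PCR-amplified and Illumina-sequenced.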

Row | Sequence | protein stability index (doa10∆) | protein stability index (pdr5∆) | protein stability index (san1∆) | protein stability index (ubr1∆)
1 | RRYKLLTATPNSINKTT [POP1] | 2 ± 0.046 | 2.38 ± 0.049 | 2.4 ± 0.065 | 2.52 ± 0.042
2 | ALAFCEIGITQQRIVSA [RRP4] | 1.71 ± 0.11 | 2.31 ± 0.11 | 1.92 ± 0.23 | 2.25 ± 0.075
3 | QLIKQSIKNNVAMCFVI [SNU114] | 1.37 ± 0.16 | 1.69 ± 0.14 | 1.24 ± 0.2 | –
4 | KISNSKLLSLLRSKTSA [SIR4] | 2.19 ± 0.058 | 2.45 ± 0.044 | 2.3 ± 0.08 | 2.29 ± 0.055
5 | FLVLYDVKTAEEASQLI [NUT1] | 1.45 ± 0.047 | 1.93 ± 0.077 | 2.78 ± 0.061 | 3.01 ± 0.047
6 | EKASRQQRKQKKNRDKK [RPS24A] | 3.44 ± 0.094 | 3.17 ± 0.075 | 3.25 ± 0.044 | 3.32 ± 0.083
7 | FCPGEIVGKSNVLVTMP [YMR129W/POM152] | 2.69 ± 0.12 | 2.3 ± 0.1 | 1.82 ± 0.27 | 2.51 ± 0.085
8 | MSSEIAYSNTNTNTENE [SNF11] | – | – | 2.64 ± 0.24 | 3.04 ± 0.2
9 | TELVDGRENFVYANNPE [SIR3] | 3.15 ± 0.1 | 3.33 ± 0.11 | 3.05 ± 0.13 | 2.95 ± 0.083
10 | NKQPRNESFNRRISSMP [YAR002W/NUP60] | 2.62 ± 0.068 | 3.04 ± 0.07 | 2.53 ± 0.078 | 2.99 ± 0.038
11 | GSFKVVKGTNISEKDLV [RPO31] | 2.6 ± 0.27 | 3.36 ± 0.14 | 3.51 ± 0.044 | 3.5 ± 0.089
12 | DFIDTATRHVLMRQGVL [RPS3] | 3.24 ± 0.055 | 3.06 ± 0.059 | 3.38 ± 0.054 | 2.98 ± 0.04
13 | NHPELQGITRNVVNYLS [RPC17] | 2.02 ± 0.062 | 1.83 ± 0.061 | 2.19 ± 0.11 | 2.47 ± 0.062
14 | SFGNREEFINKLVKAMN [RPL7B] | 2.03 ± 0.13 | 1.94 ± 0.17 | – | 2.75 ± 0.073
15 | NLTPANILNMSMNNDFQ [PGD1] | 2.86 ± 0.11 | 3.22 ± 0.091 | 3.01 ± 0.068 | 2.89 ± 0.052
16 | ERGQKVKNVKNSDLEFN [ARP9] | 3 ± 0.18 | 1.96 ± 0.09 | 2.17 ± 0.18 | 1.25 ± 0.072
17 | YQLNGVAPFMIKYEFNG [YMR129W/POM152] | 2.63 ± 0.097 | 2.64 ± 0.075 | 2.62 ± 0.082 | 2.73 ± 0.057
18 | APNNSNGGSEEEITCAL [MED7] | 3.45 ± 0.094 | 3.45 ± 0.13 | 3.42 ± 0.095 | 3.31 ± 0.085
19 | KNYLKNYILNFKQSNSE [CDC53] | 2.6 ± 0.044 | 1.95 ± 0.043 | 2.34 ± 0.083 | 1.89 ± 0.037
20 | TFLSEWGMEPLEDYVPH [RPB2] | 3.17 ± 0.1 | 3.71 ± 0.23 | 3.13 ± 0.12 | 2.81 ± 0.14
21 | ELAINLIRFDESITKAM [SMC2] | 2.59 ± 0.062 | 2.78 ± 0.08 | 2.62 ± 0.09 | 2.65 ± 0.071
22 | SINGGIVVAMTGKDCVA [PUP3] | – | 2.39 ± 0.21 | – | –
23 | LLLKLASPHASVRTAVF [ECM29] | 1.88 ± 0.048 | 1.87 ± 0.043 | 1.57 ± 0.063 | 1.49 ± 0.029
24 | GRYAGKKVVIVKPHDEG [RPL27A] | 3.25 ± 0.25 | 2.72 ± 0.21 | – | 2.29 ± 0.26
25 | PVKVSGTIKKIEQFAMR [POP5] | 2.54 ± 0.089 | 2.65 ± 0.058 | 2.34 ± 0.082 | 2.56 ± 0.042
26 | SKRSKIDIINKLILHAI [YML103C/NUP188] | 1.23 ± 0.13 | 1.23 ± 0.11 | 1.04 ± 0.13 | 1.1 ± 0.079
27 | TTFEYIIKERALLSKVK [SNF2] | 1.58 ± 0.046 | 1.67 ± 0.048 | 1.41 ± 0.071 | 1.37 ± 0.036

Row | Sequence | protein stability index (doa10∆) | protein stability index (pdr5∆) | protein stability index (san1∆) | protein stability index (ubr1∆)
28 | NKTKAVDNTVPSTTLFN [YOR098C/NUP1] | 2.84 ± 0.087 | 2.58 ± 0.067 | 3.04 ± 0.054 | 3.15 ± 0.055
29 | KKVVIVKPHDEGSKSHP [RPL27A] | 2.87 ± 0.081 | 2.86 ± 0.066 | 2.82 ± 0.093 | 3.04 ± 0.057
30 | PSLKAHFTEIKLNKVDK [SIR3] | 2.31 ± 0.061 | 2.13 ± 0.065 | 2.35 ± 0.065 | 2.08 ± 0.082
31 | PRRFGKGSRQCRVCSSH [RPS29B] | 2.96 ± 0.061 | 3.06 ± 0.038 | 2.97 ± 0.043 | 2.912 ± 0.029
32 | KVAKRTKIKPFIKVVNY [RPL27A] | 2.9 ± 0.09 | 2.8 ± 0.096 | 2.86 ± 0.06 | 2.64 ± 0.076
33 | FKSPIDNSESHPFIPLL [RRP6] | 1.95 ± 0.07 | 2.23 ± 0.053 | 2.03 ± 0.075 | 1.82 ± 0.052
34 | MLKYRRLFIGDQNNKKM [SNF2] | 2.62 ± 0.097 | 2.82 ± 0.073 | 2.47 ± 0.094 | 2.63 ± 0.057
35 | SREVLRYEEFADKVKLG [RPC40] | 2.96 ± 0.08 | 3.26 ± 0.19 | 3.17 ± 0.12 | 3.21 ± 0.14
36 | IGIVDYEAGASHGNPVV [FAS1] | 3.01 ± 0.068 | 2.99 ± 0.064 | 3.03 ± 0.063 | 3.19 ± 0.04
37 | LFDTYHASKAIGLPRHS [RRP6] | 2.15 ± 0.061 | 2.29 ± 0.06 | 2.34 ± 0.081 | 2.08 ± 0.071
38 | EGSWDRGIPRISTLFQR [PRP8] | 2.79 ± 0.19 | – | 3.24 ± 0.14 | 3.06 ± 0.11
39 | NENNNNSSEKNNNNNNN [MED2] | 2.91 ± 0.066 | 2.96 ± 0.065 | 3.04 ± 0.071 | 2.95 ± 0.07
40 | NFEYDLSEYDAIQKKDN [YOR098C/NUP1] | 2.9 ± 0.2 | 3.23 ± 0.13 | 2.15 ± 0.26 | 3.23 ± 0.064
41 | KERTKSLEHELKRSTEL [YIL149C/MLP2] | 3.04 ± 0.15 | 3.36 ± 0.28 | 2.47 ± 0.12 | 3.12 ± 0.094
42 | KREGKTRLLNIVMQLRK [ISW2] | 2.7 ± 0.078 | 3.02 ± 0.063 | 3.11 ± 0.054 | 2.97 ± 0.057
43 | LAAERKVTSTLLEQDTS [PRE9] | 2.46 ± 0.066 | 2.58 ± 0.082 | 2.65 ± 0.082 | 2.36 ± 0.089
44 | HKCDELITLFNKGELET [RPO31] | 2.72 ± 0.095 | 3.15 ± 0.07 | 2.98 ± 0.094 | 2.92 ± 0.1
45 | MSDAVTIRTRKVISNPL [RPS24A] | 2.78 ± 0.23 | 2.69 ± 0.13 | 2.97 ± 0.13 | 2.23 ± 0.14
46 | DDVVVLTGEAEIEQPVT [FAS1] | 3.47 ± 0.12 | 3.27 ± 0.12 | 2.85 ± 0.13 | 2.98 ± 0.099
47 | EALLRSLLDAEEERRKK [SNF2] | 2.87 ± 0.15 | 2.62 ± 0.094 | 2.27 ± 0.17 | –
48 | STPYLEILVEESGLRPV [PCI8] | 1.57 ± 0.048 | 1.55 ± 0.091 | 1.54 ± 0.19 | 2.17 ± 0.091
49 | STSYAIKKKDELERVAK [RPS5] | 3.44 ± 0.084 | 3.52 ± 0.11 | 3.33 ± 0.061 | 3.35 ± 0.081
50 | ENGRRINELTLLVQKRF [RPS3] | 3.51 ± 0.27 | 3.42 ± 0.11 | 3.55 ± 0.13 | 3.32 ± 0.12
51 | LGITGLATDVTTLNEMF [PUP3] | 2.2 ± 0.16 | 2.39 ± 0.11 | 2.24 ± 0.16 | 2.27 ± 0.11
52 | QSTPQPDDMVEINSVGN [ITC1] | 3.2 ± 0.11 | 3.42 ± 0.043 | 3.04 ± 0.13 | 3.18 ± 0.075
53 | VVTRSKEAFEEEIKQSA [SMC1] | 3.05 ± 0.14 | 3.07 ± 0.13 | 3.11 ± 0.25 | 3.1 ± 0.089
